Laboratory results as given in US20230417748A1 (GREEN CROSS, published 2023).

Assays:
Experiment in all cases: ELISA (FIG. 7)
[1] = biological target: T1, RBD-T478I (Sino biologics, 40592-V08H30) (SARS-CoV-2, UniProt P0DTC2 319-541)
T1 construct: domain: RBD

[2] = biological target: T2, RBD-V367F (Sino biologics, 40592-V08H1) (SARS-CoV-2, UniProt P0DTC2 319-541)
T2 construct: domain: RBD

[3] = biological target: T3, RBD-A522S (Sino biologics, 40592-V08H21) (SARS-CoV-2, UniProt P0DTC2 319-541)
T3 construct: domain: RBD

[4] = biological target: Spike-D614G (Sino biologics, 40589-V08B4) (SARS-CoV-2, UniProt P0DTC2 16-1213)
[5] = biological target: T4, RBD-P479S (Sino biologics, 40592-V08H57) (SARS-CoV-2, UniProt P0DTC2 319-541)
T4 construct: domain: RBD

[6] = biological target: T5, RBD-N501Y (Sino biologics, 40592-V08H82) (SARS-CoV-2, UniProt P0DTC2 319-541)
T5 construct: domain: RBD

[7] = biological target: T6, RBD-N439K (Sino biologics, 40592-V08H14) (SARS-CoV-2, UniProt P0DTC2 319-541)
T6 construct: domain: RBD

[8] = biological target: T7, RBD-S477N (Sino biologics, 40592-V08H46) (SARS-CoV-2, UniProt P0DTC2 319-541)
T7 construct: domain: RBD

Measured: binding result

B1: M5-4 (antibody, V domains shown)
VH: EVQLVESGGGLVKPGGSLRLSCAASGFTFSSRGMSWVRQAPGKGLEWVSTISFGDIYTYYPDSVKGRFTISRDNAKNSLYLQMNSLRAEDTAVYYCARPNDGYFDYWGQGTLVTVSS
VL: DIQMTQSPSSLSASVGDRVTITCKASQSVSNDVAWYQQKPGKAPKLLIYYASNRYTGVPSRFSGSGSGTDFTLTISSLQPEDFATYYCQQSYSAPYTFGGGTKVEIKR
binds: [1] | [2] | [3] | [4] | [5] | [6] | [7] | [8]
